# Laboratory results from PMC12777564, “Proposal of metagenomic-origin LRA-5 as a precursor of active β-lactamases through Tyr69Gln and Val166Glu amino acid substitutions: a functional and structural analysis” (Antimicrobial Agents and Chemotherapy, 2025).
# Tests used:
# LRA-5 = molecular target: T1, LRA-5 (uncultured bacterium BLR5, UniProt B5L5W7); test: biochemical; set-up: time-dependent inactivation of purified LRA-5 by clavulanate, 100 uM nitrocefin as reporter substrate; conditions: wild-type LRA-5
# T1 construct: gene blaLRA-5
# Description: For irreversible inhibitors like clavulanic acid, the rate constant of inactivation, kinact, was measured directly by time-dependent inactivation of LRA-5 variants using a fixed concentration of enzyme and 100 µM nitrocefin as reporter and increasing concentrations of the inhibitor. The observed rate constant for inactivation (kobs) was determined by nonlinear least-squares fitting of the data using equation 3, as described elsewhere ([42]). […] This behavior is not entirely striking, as it may be related to the fact that the absence of Glu166 in the wild-type variant could still favor the inhibition of clavulanate, due to the absence of the water molecule that normally “competes” with inhibitors during acylation ([29]). Overnight cultures of recombinant E. coli BL21(DE3) cells expressing wild-type LRA-5 and LRA-5^Y69Q/V166E were diluted (1/50) in 500 mL Lysogeny Broth (LB) supplemented with 30 µg/mL kanamycin and grown at 37°C until 0.6–0.8 OD units (λ = 600 nm) was reached. […] Eluted fractions were analyzed by SDS-PAGE in 15% polyacrylamide gels. […] The protein purity was assessed by Coomassie blue staining on 15% SDS polyacrylamide gels, and protein concentration was determined by UV absorbance at 280 nm and calculated according to the Lambert-Beer law. […]
# [1] = test system: CO/N=C(\C(=O)N[C@@H]1C(=O)N2C(C(=O)[O-])=C(C[N+]3(C)CCCC3)CS[C@H]12)c1csc(N)n1; test: steady-state hydrolysis kinetics with pure enzyme (Km), no-enzyme control; assay type: biochemical, uncultured bacterium BLR5
# Excerpt: steady-state hydrolysis kinetics with pure enzyme (Km), no-enzyme control on LRA-5 | The exceptions were nitrocefin and, strikingly, cefepime.
# [2] = test system: CC(=O)OCC1=C(C(=O)O)N2C(=O)[C@@H](NC(=O)Cc3cccs3)[C@H]2SC1; test: purified protein, by the assay type; set-up: steady-state beta-lactam hydrolysis kinetics with purified LRA-5; Km (apparent Km via nitrocefin competition for poor substrates); conditions: pH 7.5
# Description: (§1) For low Km values, the kcat values were derived by complete hydrolysis time courses as described by De Meester et al. ([41]). For poor substrates that behave as competitive inhibitors, the Ki was obtained by monitoring the residual activity of the enzyme in the presence of various concentrations of the drug and 100 µM nitrocefin as reporter substrate; the corrected Ki (considered the observed or apparent Km) value was finally determined using equation 2: The kinetic parameters of wild-type LRA-5 and its double substituted variant LRA-5^Y69Q/V166E are shown in Table 3. […] This behavior is expected considering that this variant lacks Glu166, which is essential to orient the deacylation water molecule during the regeneration stage of the active site. The exceptions were nitrocefin and, strikingly, cefepime. This behavior deserves more in-depth analysis. […] Overnight cultures of recombinant E. coli BL21(DE3) cells expressing wild-type LRA-5 and LRA-5^Y69Q/V166E were diluted (1/50) in 500 mL Lysogeny Broth (LB) supplemented with 30 µg/mL kanamycin and grown at 37°C until 0.6–0.8 OD units (λ = 600 nm) was reached. At this point, 1 mM isopropyl β-D-thiogalactopyranoside (IPTG) was added, and cultures were resumed for growing overnight at 20°C (200 rpm stirring). Then, cell pellets were obtained after centrifugation at 8,000 rpm for 20 min (4°C) in a Sorvall RC-5C (GS3 rotor) and resuspended in 20 mM Tris buffer (pH 7.5) + 500 mM NaCl (buffer A). Crude extracts were obtained by ultrasonic disruption (9 cycles of 5 min, 40% potency, 20 pulses/min, on ice bath) and clarified by centrifugation at 10,000 rpm for 20 min (4°C, SS34 rotor). Clarified supernatants were filtrated through 0.45 µm pore-size membranes, and loaded onto 5 mL HisTrap HP affinity columns (GE Healthcare Life Sciences, USA), connected to an ÄKTA-purifier (GE Healthcare, Uppsala, Sweden), and equilibrated with buffer A. The column was extensively washed to remove unbound proteins, and the LRA-5 proteins were eluted using a linear gradient (0%–100%; 1 mL/min flow rate) of buffer B consisting of buffer A + 500 mM imidazole (pH 7.5). Eluted fractions were analyzed by SDS-PAGE in 15% polyacrylamide gels. Fractions containing the pure LRA-5 variants were dialyzed against buffer A, and the histidine tag was removed by thrombin digestion (16 h at 25°C), using 10 U thrombin per mg protein for complete proteolysis, and later by affinity purification using 1 mL HisTrap HP columns (GE Healthcare Life Sciences, USA), following the same conditions as before (the pure LRA-5 is recovered in the pass-through, while the His-tag and any uncleaved fractions remain attached to the column). The protein purity was assessed by Coomassie blue staining on 15% SDS polyacrylamide gels, and protein concentration was determined by UV absorbance at 280 nm and calculated according to the Lambert-Beer law. The fractions of purified enzymes were stored at −80°C for subsequent kinetics and crystallographic assays.
# [3] = test system: CC1(C)S[C@@H]2[C@H](NC(=O)[C@H](N)c3ccccc3)C(=O)N2[C@H]1C(=O)O; test: purified protein, by the assay type; set-up: steady-state beta-lactam hydrolysis kinetics with purified LRA-5; Km (apparent Km via nitrocefin competition for poor substrates); conditions: pH 7.5
# Description: as §1
# [4] = test system: CO/N=C(\C(=O)N[C@@H]1C(=O)N2C(C(=O)O)=C(CSc3nc(=O)c(=O)[nH]n3C)CS[C@H]12)c1csc(N)n1; test: purified protein, by the assay type; set-up: steady-state beta-lactam hydrolysis kinetics with purified LRA-5; Km (apparent Km via nitrocefin competition for poor substrates); conditions: pH 7.5
# Description: as §1
# [5] = test system: C[C@H]1[C@H](NC(=O)/C(=N\OC(C)(C)C(=O)O)c2csc(N)n2)C(=O)N1S(=O)(=O)O; test: purified protein, by the assay type; set-up: steady-state beta-lactam hydrolysis kinetics with purified LRA-5; Km (apparent Km via nitrocefin competition for poor substrates); conditions: pH 7.5
# Description: as §1
# [6] = test system: O=C(Cc1cccs1)N[C@@H]1C(=O)N2C(C(=O)O)=C(/C=C/c3ccc([N+](=O)[O-])cc3[N+](=O)[O-])CS[C@H]12; test: purified protein, by the assay type; set-up: steady-state beta-lactam hydrolysis kinetics with purified LRA-5; Km (apparent Km via nitrocefin competition for poor substrates); conditions: pH 7.5
# Description: as §1
# [7] = test system: CC(=O)OCC1=C(C(=O)O)N2C(=O)[C@@H](NC(=O)Cc3cccs3)[C@H]2SC1; test: steady-state hydrolysis kinetics with pure enzyme (Km); assay type: biochemical, uncultured bacterium BLR5
# [8] = test system: CC1(C)S[C@@H]2[C@H](NC(=O)[C@H](N)c3ccccc3)C(=O)N2[C@H]1C(=O)O; test: as above; assay type: biochemical, uncultured bacterium BLR5
# [9] = test system: CO/N=C(\C(=O)N[C@@H]1C(=O)N2C(C(=O)O)=C(CSc3nc(=O)c(=O)[nH]n3C)CS[C@H]12)c1csc(N)n1; test: as above; assay type: biochemical, uncultured bacterium BLR5
# [10] = test system: C[C@@H](O)[C@H]1C(=O)N2C(C(=O)O)=C(SCCN=CN)C[C@H]12; test: as above; assay type: biochemical, uncultured bacterium BLR5
# [11] = test system: C[C@@H](O)[C@H]1C(=O)N2C(C(=O)O)=C(S[C@@H]3CN[C@H](C(=O)N(C)C)C3)[C@H](C)[C@H]12; test: as above; assay type: biochemical, uncultured bacterium BLR5
# [12] = test system: O=C(Cc1cccs1)N[C@@H]1C(=O)N2C(C(=O)O)=C(/C=C/c3ccc([N+](=O)[O-])cc3[N+](=O)[O-])CS[C@H]12; test: as above; assay type: biochemical, uncultured bacterium BLR5
# T1 sequence (B5L5W7 entry or part of it): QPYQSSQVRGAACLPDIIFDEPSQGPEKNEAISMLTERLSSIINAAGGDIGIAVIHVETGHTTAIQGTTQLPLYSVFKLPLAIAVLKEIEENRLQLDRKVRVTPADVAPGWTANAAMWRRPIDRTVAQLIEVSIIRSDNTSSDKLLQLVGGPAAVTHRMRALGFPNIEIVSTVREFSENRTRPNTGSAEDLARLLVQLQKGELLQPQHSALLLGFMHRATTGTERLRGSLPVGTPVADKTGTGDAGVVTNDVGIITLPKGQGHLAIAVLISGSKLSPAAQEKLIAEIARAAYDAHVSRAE
compound,measurement,setting,value
O=C(O)[C@H]1/C(=C/CO)O[C@@H]2CC(=O)N21 [Clavulanate],kinact,LRA-5; read-out: LRA-5 (wild-type) / kcat (s^−1) / NH / kinact,0.005 ± 0.0001 s⁻¹
same,kinact/KI,LRA-5; read-out: LRA-5 (wild-type) / kcat/Km (M^−1 s^−1) / ND / kinact/K,833 ± 102 M⁻¹ s⁻¹
LRA-5 (uncultured bacterium BLR5),Km,[1],10.0 ± 0.5 µM
same,kcat,[1],0.02 ± 0.006 s⁻¹
same,kcat/Km,[1],2000 ± 100 M⁻¹ s⁻¹
same,Km,[2],35 ± 4 µM
same,kcat,[2],0.005 ± 0.0008 s⁻¹
same,kcat/Km,[2],143 ± 28 M⁻¹ s⁻¹
same,Km,[3],65 ± 13 µM
same,kcat,[3],0.01 ± 0.002 s⁻¹
same,kcat/Km,[3],154 ± 44 M⁻¹ s⁻¹
same,Km,[4],11 ± 2 µM
same,kcat,[4],3.6e-06 ± 6e-07 s⁻¹
same,kcat/Km,[4],0.32 ± 0.08 M⁻¹ s⁻¹
same,kcat,[5],2e-05 ± 3e-06 s⁻¹
same,kcat/Km,[5],< 0.02 M⁻¹ s⁻¹
same,Km,[6],8 ± 2 µM
same,kcat,[6],0.045 ± 0.001 s⁻¹
same,kcat/Km,[6],5600 ± 1400 M⁻¹ s⁻¹
LRA-5^Y69Q/V166E (uncultured bacterium BLR5; V199E/Y100Q),Km,[7],14 ± 3 µM
same,kcat,[7],0.025 ± 0.001 s⁻¹
same,kcat/Km,[7],1780 ± 389 M⁻¹ s⁻¹
same,Km,[8],4.0 ± 0.2 µM
same,kcat,[8],0.002 ± 0.0006 s⁻¹
same,kcat/Km,[8],500 ± 152 M⁻¹ s⁻¹
same,Km,[9],29 ± 9 µM
same,kcat,[9],0.107 ± 0.01 s⁻¹
same,kcat/Km,[9],3690 ± 1200 M⁻¹ s⁻¹
same,Km,[10],3.0 ± 0.1 µM
same,kcat,[10],0.006 ± 0.0002 s⁻¹
same,kcat/Km,[10],1920 ± 86 M⁻¹ s⁻¹
same,Km,[11],5.0 ± 0.6 µM
same,kcat,[11],0.003 ± 0.0007 s⁻¹
same,kcat/Km,[11],600 ± 157 M⁻¹ s⁻¹
same,Km,[12],32 ± 4 µM
same,kcat,[12],4.8 ± 0.3 s⁻¹
same,kcat/Km,[12],150000 ± 21000 M⁻¹ s⁻¹
